The supplement of paper PMC10065799, “High-throughput profiling of sequence recognition by tyrosine kinases and SH2 domains using bacterial peptide display” (eLife, 2023)

Each sequence was assayed on c-Src (assay: phosphorylation enrichment, bacterial display (enrichment ratio); higher = better substrate or ligand; peptides without Tyr show the background).
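Wherever SH2 binding enrichment of the phosphorylated peptide, bacterial display is given: peptide library displayed on the E. coli surface as eCPX fusions, selected cells deep-sequenced, score is each peptide's frequency after selection divided by its frequency in the input.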
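Wherever phosphorylation enrichment, bacterial display is given: 11-residue human phosphosite peptides and single-mutation variants displayed on the E. coli surface, counted by deep sequencing, each peptide's frequency after selection divided by its frequency in the unselected input library; frequency after pTyr selection over input frequency; kinase dosed for 20-30% of maximal phosphorylation in three min.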

First: HQPGEYLFHAE [FLT3_Y416_I417L]
Second: QGIIIYRAAFF [SLC25A4_Y187_YF]
The phosphorylation enrichment of the first is higher: 0.879 for the first, 0.542 for the second.

Compared with ERDFTYEELLN [EIF2S2_Y176_YF], LLNAIYLSAKW [SERPING1_Y294] is higher in phosphorylation enrichment: 0.675 for the first, 1.04 for the second.

Going from KPLMPSMRFSR [SMARCE1_Y73_Y73S_YF] to ACQSLYGGFVE [MVD_Y164_R161Q], the phosphorylation enrichment rises from 0.543 to 7.59.

Compared with REATAYLHGRL [AGXT_Y297_A295T], CTTIHYNYMCS [TP53_Y234_N239S] is higher in phosphorylation enrichment: 0.521 for the first, 0.538 for the second.

Going from MSYDRYMAVCH [OR2A5_Y123_I126V] to KILGTYFETGS [PAX2_Y72_R71T_YF], the phosphorylation enrichment rises from 0.464 to 0.585.

Compared with RRGFLYDSDEE [MCM2_Y137_L135F], FLAAIYPTVGQ [NF1_Y2508_T2507I_YF] is lower in phosphorylation enrichment: 0.625 for the first, 0.442 for the second.

Going from FSKDNYKRVTG [PANK2_Y405_YF] to YGLQAYTEVKT [ALDH2_Y502], the phosphorylation enrichment rises from 0.369 to 0.439.

First: QGGRHYMMIVD [GAA_Y438_R437H]
Second: ILDEAYVMAGV [ERBB2_Y772]
The phosphorylation enrichment of the first is lower: 0.444 for the first, 0.694 for the second.

Compared with HSDFQYGQRSQ [PKP2_Y168_S169G_YF], DIMDLYNQPEL [IL36A_Y96_P101L] is higher in phosphorylation enrichment: 0.682 for the first, 0.99 for the second.

First: VYSATYHPDHW [EFCAB12_Y544_P541S]
Second: AVEDQYYCVDC [FHL1_Y207]
The phosphorylation enrichment of the first is higher: 5.17 for the first, 1.97 for the second.

Compared with EEEFFYEKAIL [BCCIP_Y257], YSMGCYEISLE [HMGCL_Y198_G203E] is higher in phosphorylation enrichment: 0.89 for the first, 2.02 for the second.

First: DILASYLDKVR [KRT12_Y139_R135I]
Second: AVARMYGVLPW [PLP1_Y207_D203V]
The phosphorylation enrichment of the first is lower: 0.375 for the first, 2.19 for the second.

Compared with LVQAEYWRDPI [PPT1_Y185_H187R], FGSVDYWEKFF [EEF1AKNMT_Y16] is lower in phosphorylation enrichment: 0.691 for the first, 0.523 for the second.

First: AEVIWYKGDEE
Second: EKNANYKEGTY [CLRN1_Y171_I168N]
The phosphorylation enrichment of the first is lower: 0.303 for the first, 0.426 for the second.

With QLPATYMNLGP [MST1R_Y1360] the phosphorylation enrichment was 1.23.

What follows are sequences tested against Grb2 SH2 (UniProt P62993) (assay: SH2 binding enrichment of the phosphorylated peptide, bacterial display (enrichment ratio); higher = better substrate or ligand; peptides without Tyr show the background).
Sequence of Grb2 SH2 (P62993 whole entry, looked up): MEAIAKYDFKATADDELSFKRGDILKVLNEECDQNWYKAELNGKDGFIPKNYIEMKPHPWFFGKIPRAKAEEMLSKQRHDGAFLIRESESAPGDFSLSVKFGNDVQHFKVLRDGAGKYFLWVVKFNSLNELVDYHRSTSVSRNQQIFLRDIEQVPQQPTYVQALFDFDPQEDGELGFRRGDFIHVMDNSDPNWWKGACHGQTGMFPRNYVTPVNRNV

First: HQPGEYLFHAE [FLT3_Y416_I417L]
Second: QGIIIYRAAFF [SLC25A4_Y187_YF]
The SH2 binding enrichment of the first is higher: 0.742 for the first, 0.699 for the second.

Going from ERDFTYEELLN [EIF2S2_Y176_YF] to LLNAIYLSAKW [SERPING1_Y294], the SH2 binding enrichment falls from 1.14 to 1.06.

First: KPLMPSMRFSR [SMARCE1_Y73_Y73S_YF]
Second: ACQSLYGGFVE [MVD_Y164_R161Q]
The SH2 binding enrichment of the first is lower: 0.831 for the first, 0.902 for the second.

Compared with REATAYLHGRL [AGXT_Y297_A295T], CTTIHYNYMCS [TP53_Y234_N239S] is higher in SH2 binding enrichment: 0.794 for the first, 1.43 for the second.

Going from MSYDRYMAVCH [OR2A5_Y123_I126V] to KILGTYFETGS [PAX2_Y72_R71T_YF], the SH2 binding enrichment rises from 0.779 to 0.848.

Compared with RRGFLYDSDEE [MCM2_Y137_L135F], FLAAIYPTVGQ [NF1_Y2508_T2507I_YF] is higher in SH2 binding enrichment: 0.802 for the first, 1.01 for the second.

Going from FSKDNYKRVTG [PANK2_Y405_YF] to YGLQAYTEVKT [ALDH2_Y502], the SH2 binding enrichment rises from 0.719 to 0.984.

Going from QGGRHYMMIVD [GAA_Y438_R437H] to ILDEAYVMAGV [ERBB2_Y772], the SH2 binding enrichment falls from 1.09 to 0.935.

Going from HSDFQYGQRSQ [PKP2_Y168_S169G_YF] to DIMDLYNQPEL [IL36A_Y96_P101L], the SH2 binding enrichment rises from 0.737 to 0.764.

Going from VYSATYHPDHW [EFCAB12_Y544_P541S] to AVEDQYYCVDC [FHL1_Y207], the SH2 binding enrichment falls from 0.97 to 0.877.

Compared with EEEFFYEKAIL [BCCIP_Y257], YSMGCYEISLE [HMGCL_Y198_G203E] is lower in SH2 binding enrichment: 0.981 for the first, 0.766 for the second.

DILASYLDKVR [KRT12_Y139_R135I] and AVARMYGVLPW [PLP1_Y207_D203V] are the same in SH2 binding enrichment: 0.952 for the first, 0.952 for the second.

Going from LVQAEYWRDPI [PPT1_Y185_H187R] to FGSVDYWEKFF [EEF1AKNMT_Y16], the SH2 binding enrichment falls from 0.818 to 0.749.

Going from AEVIWYKGDEE to EKNANYKEGTY [CLRN1_Y171_I168N], the SH2 binding enrichment falls from 1.11 to 0.963.

Sequence QLPATYMNLGP [MST1R_Y1360] has an SH2 binding enrichment of 11.

The sequences below were run against SHP2-C SH2 in the same assay as above.

First: HQPGEYLFHAE [FLT3_Y416_I417L]
Second: QGIIIYRAAFF [SLC25A4_Y187_YF]
The SH2 binding enrichment of the first is higher: 1.19 for the first, 0.772 for the second.

First: ERDFTYEELLN [EIF2S2_Y176_YF]
Second: LLNAIYLSAKW [SERPING1_Y294]
The SH2 binding enrichment of the first is higher: 0.715 for the first, 0.553 for the second.

Going from KPLMPSMRFSR [SMARCE1_Y73_Y73S_YF] to ACQSLYGGFVE [MVD_Y164_R161Q], the SH2 binding enrichment rises from 0.675 to 0.735.

Going from REATAYLHGRL [AGXT_Y297_A295T] to CTTIHYNYMCS [TP53_Y234_N239S], the SH2 binding enrichment rises from 0.571 to 2.75.

Compared with MSYDRYMAVCH [OR2A5_Y123_I126V], KILGTYFETGS [PAX2_Y72_R71T_YF] is higher in SH2 binding enrichment: 0.687 for the first, 0.982 for the second.

First: RRGFLYDSDEE [MCM2_Y137_L135F]
Second: FLAAIYPTVGQ [NF1_Y2508_T2507I_YF]
The SH2 binding enrichment of the first is lower: 0.564 for the first, 0.641 for the second.

First: FSKDNYKRVTG [PANK2_Y405_YF]
Second: YGLQAYTEVKT [ALDH2_Y502]
The SH2 binding enrichment of the first is lower: 0.502 for the first, 2.38 for the second.

Going from QGGRHYMMIVD [GAA_Y438_R437H] to ILDEAYVMAGV [ERBB2_Y772], the SH2 binding enrichment falls from 1.57 to 0.651.

Compared with HSDFQYGQRSQ [PKP2_Y168_S169G_YF], DIMDLYNQPEL [IL36A_Y96_P101L] is higher in SH2 binding enrichment: 0.675 for the first, 0.768 for the second.

Going from VYSATYHPDHW [EFCAB12_Y544_P541S] to AVEDQYYCVDC [FHL1_Y207], the SH2 binding enrichment falls from 0.788 to 0.748.

Compared with EEEFFYEKAIL [BCCIP_Y257], YSMGCYEISLE [HMGCL_Y198_G203E] is lower in SH2 binding enrichment: 0.685 for the first, 0.564 for the second.

Going from DILASYLDKVR [KRT12_Y139_R135I] to AVARMYGVLPW [PLP1_Y207_D203V], the SH2 binding enrichment falls from 0.824 to 0.433.

First: LVQAEYWRDPI [PPT1_Y185_H187R]
Second: FGSVDYWEKFF [EEF1AKNMT_Y16]
The SH2 binding enrichment of the first is higher: 1.14 for the first, 0.759 for the second.

First: AEVIWYKGDEE
Second: EKNANYKEGTY [CLRN1_Y171_I168N]
The SH2 binding enrichment of the first is lower: 0.531 for the first, 0.774 for the second.

For QLPATYMNLGP [MST1R_Y1360], the SH2 binding enrichment was 1.46.

Each sequence was assayed against c-Src SH2 in the same assay as above.

Going from HQPGEYLFHAE [FLT3_Y416_I417L] to QGIIIYRAAFF [SLC25A4_Y187_YF], the SH2 binding enrichment falls from 0.514 to 0.307.

First: ERDFTYEELLN [EIF2S2_Y176_YF]
Second: LLNAIYLSAKW [SERPING1_Y294]
The SH2 binding enrichment of the first is higher: 0.69 for the first, 0.686 for the second.

Going from KPLMPSMRFSR [SMARCE1_Y73_Y73S_YF] to ACQSLYGGFVE [MVD_Y164_R161Q], the SH2 binding enrichment rises from 0.569 to 0.628.

First: REATAYLHGRL [AGXT_Y297_A295T]
Second: CTTIHYNYMCS [TP53_Y234_N239S]
The SH2 binding enrichment of the first is lower: 0.483 for the first, 4.92 for the second.

Compared with MSYDRYMAVCH [OR2A5_Y123_I126V], KILGTYFETGS [PAX2_Y72_R71T_YF] is lower in SH2 binding enrichment: 0.993 for the first, 0.638 for the second.

Going from RRGFLYDSDEE [MCM2_Y137_L135F] to FLAAIYPTVGQ [NF1_Y2508_T2507I_YF], the SH2 binding enrichment rises from 0.455 to 0.759.

Going from FSKDNYKRVTG [PANK2_Y405_YF] to YGLQAYTEVKT [ALDH2_Y502], the SH2 binding enrichment rises from 0.406 to 6.95.

First: QGGRHYMMIVD [GAA_Y438_R437H]
Second: ILDEAYVMAGV [ERBB2_Y772]
The SH2 binding enrichment of the first is higher: 8.36 for the first, 0.494 for the second.

Compared with HSDFQYGQRSQ [PKP2_Y168_S169G_YF], DIMDLYNQPEL [IL36A_Y96_P101L] is higher in SH2 binding enrichment: 0.394 for the first, 0.556 for the second.

Compared with VYSATYHPDHW [EFCAB12_Y544_P541S], AVEDQYYCVDC [FHL1_Y207] is higher in SH2 binding enrichment: 0.634 for the first, 1.08 for the second.

Compared with EEEFFYEKAIL [BCCIP_Y257], YSMGCYEISLE [HMGCL_Y198_G203E] is lower in SH2 binding enrichment: 0.655 for the first, 0.504 for the second.

First: DILASYLDKVR [KRT12_Y139_R135I]
Second: AVARMYGVLPW [PLP1_Y207_D203V]
The SH2 binding enrichment of the first is higher: 0.656 for the first, 0.524 for the second.

Compared with LVQAEYWRDPI [PPT1_Y185_H187R], FGSVDYWEKFF [EEF1AKNMT_Y16] is lower in SH2 binding enrichment: 0.914 for the first, 0.493 for the second.

Going from AEVIWYKGDEE to EKNANYKEGTY [CLRN1_Y171_I168N], the SH2 binding enrichment rises from 0.446 to 0.538.

QLPATYMNLGP [MST1R_Y1360] gave an SH2 binding enrichment of 1.92.
